Assay results taken from US20240383958A1, “APELIN RECEPTOR AGONISTS AND USES THEREOF” (VISTERRA, INC., priority 2023, published 2024).

Tests used:
[1] = biological target: T1, APJ-eGFP fusion protein on CHO-M1 cells (UniProt P35414 1-380); assay: cell-based or functional assay
T1 sequence (looked up): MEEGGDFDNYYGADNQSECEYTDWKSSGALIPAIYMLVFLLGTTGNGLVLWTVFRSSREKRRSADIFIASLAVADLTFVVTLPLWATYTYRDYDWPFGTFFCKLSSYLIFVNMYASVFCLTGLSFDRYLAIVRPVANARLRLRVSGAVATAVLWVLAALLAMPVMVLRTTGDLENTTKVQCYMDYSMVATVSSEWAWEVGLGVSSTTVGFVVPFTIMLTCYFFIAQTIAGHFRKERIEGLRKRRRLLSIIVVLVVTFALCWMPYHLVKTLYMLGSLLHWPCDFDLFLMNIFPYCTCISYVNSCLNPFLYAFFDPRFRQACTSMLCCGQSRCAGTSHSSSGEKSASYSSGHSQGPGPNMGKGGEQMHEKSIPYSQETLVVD

[2] = Proteolysis during production detected using mass spectroscopy; type: physicochemical; details: proteolytic stability
Source text: Proteolysis during production was detected using mass spectroscopy, which provides insights into the proteolytic stability of the apelin receptor agonists.

[3] = test system: APJ-eGFP fusion protein; assay: Internalization assay, CHO-M1 cells expressing APJ-eGFP, high-content imaging; type: cell-based; set-up: key: 0: No Internalization; >1000; 2: 100-1000; 3: 10-100; 4: <10; details: lowest concentration at which maximum internalization was observed; 0.914 nM to 2000 nM
Description: In this example, the internalization of exemplary apelin receptor agonist was assessed. CHO-M1 cells expressing an APJ-eGFP fusion protein were stained and plated in a 96-well plate. Apelin receptor agonists were serially diluted and added to the wells at concentrations ranging from 0.914 nM to 2000 nM. The cells were later imaged using an Operetta CLS™ high-content analysis system. APJ-eGFP signal was measured in the membrane and cytoplasmic region, and the ratio of membrane signal to total signal was calculated (E ratio). An internalization score was assigned based on the lowest concentration of the compound at which maximum internalization was observed. The internalization score for each apelin receptor agonist was plotted against the EC50 values for cAMP signaling and beta-arrestin signaling as shown in FIG. 2 and FIG. 3.

[4] = biological target: T2, apelin receptor (AGTRL1) on CHO-K1 cells (UniProt P35414 1-380, limits assumed); assay: cell-based or functional assay
T2 sequence (looked up): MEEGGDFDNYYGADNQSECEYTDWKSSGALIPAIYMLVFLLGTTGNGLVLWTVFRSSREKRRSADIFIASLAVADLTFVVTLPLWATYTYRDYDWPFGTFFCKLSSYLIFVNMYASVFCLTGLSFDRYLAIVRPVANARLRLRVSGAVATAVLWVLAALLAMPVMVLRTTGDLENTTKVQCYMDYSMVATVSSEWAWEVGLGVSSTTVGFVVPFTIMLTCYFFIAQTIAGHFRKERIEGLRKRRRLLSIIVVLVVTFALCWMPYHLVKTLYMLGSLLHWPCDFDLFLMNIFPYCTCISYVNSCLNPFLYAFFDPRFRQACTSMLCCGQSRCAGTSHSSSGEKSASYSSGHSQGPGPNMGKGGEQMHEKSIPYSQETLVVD

B1: APL-A (Fc fusion)
chain: DKTHTSPPSPAPEAAGGPSVFLFPPKPKDTLMISRTPEVTCVVVDVSHEDPEVKFNWYVDGVEVHNAKTKPREEQYNSTYRVVSVLTVLHQDWLNGKEYKCKVSNKALPAPIEKTISKAKGQPREPQVYTLPPSREEMTKNQVNLTCLVKGFYPSDIAVEWESNGQPENNYKTTPPVLDSDGSFFLNSTLTVDKSRWQQGNVFSCSVMHEALHNHYTQKSLSLSPGKGGGGSGGGGSGGGGSQRPRLSHKGPMPF
Internalization Score [1]: 2

B2: APL-B (Fc fusion)
chain: DKTHTSPPSPAPEAAGGPSVFLFPPKPKDTLMISRTPEVTCVVVDVSHEDPEVKFNWYVDGVEVHNAKTKPREEQYNSTYRVVSVLTVLHQDWLNGKEYKCKVSNKALPAPIEKTISKAKGQPREPQVYTLPPSREEMTKNQVNLTCLVKGFYPSDIAVEWESNGQPENNYKTTPPVLDSDGSFFLNSTLTVDKSRWQQGNVFSCSVMHEALHNHYTQKSLSLSPGKGGGGSGGGGSGGGGSQRPRLSHKGPMVF
Internalization Score [1]: 2

B3: APL-E (Fc fusion)
chain: DKTHTSPPSPAPEAAGGPSVFLFPPKPKDTLMISRTPEVTCVVVDVSHEDPEVKFNWYVDGVEVHNAKTKPREEQYNSTYRVVSVLTVLHQDWLNGKEYKCKVSNKALPAPIEKTISKAKGQPREPQVYTLPPSREEMTKNQVNLTCLVKGFYPSDIAVEWESNGQPENNYKTTPPVLDSDGSFFLNSTLTVDKSRWQQGNVFSCSVMHEALHNHYTQKSLSLSPGKGGGGSGGGGSGGGGSQRPRLSHKGPHPF
Internalization Score [1]: 1

B4: APL-I (Fc fusion)
chain: DKTHTSPPSPAPEAAGGPSVFLFPPKPKDTLMISRTPEVTCVVVDVSHEDPEVKFNWYVDGVEVHNAKTKPREEQYNSTYRVVSVLTVLHQDWLNGKEYKCKVSNKALPAPIEKTISKAKGQPREPQVYTLPPSREEMTKNQVNLTCLVKGFYPSDIAVEWESNGQPENNYKTTPPVLDSDGSFFLNSTLTVDKSRWQQGNVFSCSVMHEALHNHYTQKSLSLSPGKGGGGSGGGGSGGGGSQRPRLSHKGPAAW
Internalization Score [1]: 1

B5: APL-F (Fc fusion)
chain: DKTHTSPPSPAPEAAGGPSVFLFPPKPKDTLMISRTPEVTCVVVDVSHEDPEVKFNWYVDGVEVHNAKTKPREEQYNSTYRVVSVLTVLHQDWLNGKEYKCKVSNKALPAPIEKTISKAKGQPREPQVYTLPPSREEMTKNQVNLTCLVKGFYPSDIAVEWESNGQPENNYKTTPPVLDSDGSFFLNSTLTVDKSRWQQGNVFSCSVMHEALHNHYTQKSLSLSPGKGGGGSGGGGSGGGGSQRPRLSHKGPAPY
Internalization Score [1]: 1

B6: APL-M (Fc fusion)
chain: DKTHTSPPSPAPEAAGGPSVFLFPPKPKDTLMISRTPEVTCVVVDVSHEDPEVKFNWYVDGVEVHNAKTKPREEQYNSTYRVVSVLTVLHQDWLNGKEYKCKVSNKALPAPIEKTISKAKGQPREPQVYTLPPSREEMTKNQVNLTCLVKGFYPSDIAVEWESNGQPENNYKTTPPVLDSDGSFFLNSTLTVDKSRWQQGNVFSCSVMHEALHNHYTQKSLSLSPGKGGGGSGGGGSGGGGSQRPRLSHWGPMAW
Internalization Score [1]: 0

B7: APL-K (Fc fusion)
chain: DKTHTSPPSPAPEAAGGPSVFLFPPKPKDTLMISRTPEVTCVVVDVSHEDPEVKFNWYVDGVEVHNAKTKPREEQYNSTYRVVSVLTVLHQDWLNGKEYKCKVSNKALPAPIEKTISKAKGQPREPQVYTLPPSREEMTKNQVNLTCLVKGFYPSDIAVEWESNGQPENNYKTTPPVLDSDGSFFLNSTLTVDKSRWQQGNVFSCSVMHEALHNHYTQKSLSLSPGKGGGGSGGGGSGGGGSQRPRLQHKNPMAF
Internalization Score [1]: 0

B8: APL-H (Fc fusion)
chain: DKTHTSPPSPAPEAAGGPSVFLFPPKPKDTLMISRTPEVTCVVVDVSHEDPEVKFNWYVDGVEVHNAKTKPREEQYNSTYRVVSVLTVLHQDWLNGKEYKCKVSNKALPAPIEKTISKAKGQPREPQVYTLPPSREEMTKNQVNLTCLVKGFYPSDIAVEWESNGQPENNYKTTPPVLDSDGSFFLNSTLTVDKSRWQQGNVFSCSVMHEALHNHYTQKSLSLSPGKGGGGSGGGGSGGGGSQRPRLSHKGPMHW
Internalization Score [1]: 0

B9: APL-J (Fc fusion)
chain: DKTHTSPPSPAPEAAGGPSVFLFPPKPKDTLMISRTPEVTCVVVDVSHEDPEVKFNWYVDGVEVHNAKTKPREEQYNSTYRVVSVLTVLHQDWLNGKEYKCKVSNKALPAPIEKTISKAKGQPREPQVYTLPPSREEMTKNQVNLTCLVKGFYPSDIAVEWESNGQPENNYKTTPPVLDSDGSFFLNSTLTVDKSRWQQGNVFSCSVMHEALHNHYTQKSLSLSPGKGGGGSGGGGSGGGGSQRPRLSHKGPAAY
Internalization Score [1]: 1

B10: APL-G (Fc fusion)
chain: DKTHTSPPSPAPEAAGGPSVFLFPPKPKDTLMISRTPEVTCVVVDVSHEDPEVKFNWYVDGVEVHNAKTKPREEQYNSTYRVVSVLTVLHQDWLNGKEYKCKVSNKALPAPIEKTISKAKGQPREPQVYTLPPSREEMTKNQVNLTCLVKGFYPSDIAVEWESNGQPENNYKTTPPVLDSDGSFFLNSTLTVDKSRWQQGNVFSCSVMHEALHNHYTQKSLSLSPGKGGGGSGGGGSGGGGSQRPRLSHKGPMAF
Internalization Score [1]: 3

B11: APL-L (Fc fusion)
chain: DKTHTSPPSPAPEAAGGPSVFLFPPKPKDTLMISRTPEVTCVVVDVSHEDPEVKFNWYVDGVEVHNAKTKPREEQYNSTYRVVSVLTVLHQDWLNGKEYKCKVSNKALPAPIEKTISKAKGQPREPQVYTLPPSREEMTKNQVNLTCLVKGFYPSDIAVEWESNGQPENNYKTTPPVLDSDGSFFLNSTLTVDKSRWQQGNVFSCSVMHEALHNHYTQKSLSLSPGKGGGGSGGGGSGGGGSQRPRLQHKNPMAW
Internalization Score [1]: 0

B12: APL-M: Leader-Fc-linker fusion of apelin analogue QRPRLSHWGPMAW (K8W, P12A, F13W) (protein)
chain: MRAWIFFLLCLAGRALADKTHTSPPSPAPEAAGGPSVFLFPPKPKDTLMISRTPEVTCVVVDVSHEDPEVKFNWYVDGVEVHNAKTKPREEQYNSTYRVVSVLTVLHQDWLNGKEYKCKVSNKALPAPIEKTISKAKGQPREPQVYTLPPSREEMTKNQVNLTCLVKGFYPSDIAVEWESNGQPENNYKTTPPVLDSDGSFFLNSTLTVDKSRWQQGNVFSCSVMHEALHNHYTQKSLSLSPGKGGGGSGGGGSGGGGSQRPRLSHWGPMAW
Proteolysis During Production? [2]: No | Internalization Score [3]: 0

B13: APL-A: Monovalent IgG1 Fc fused via GGGGSGGGGSGGGGS linker to wild-type apelin-13 QRPRLSHKGPMPF (protein)
chain: MRAWIFFLLCLAGRALADKTHTSPPSPAPEAAGGPSVFLFPPKPKDTLMISRTPEVTCVVVDVSHEDPEVKFNWYVDGVEVHNAKTKPREEQYNSTYRVVSVLTVLHQDWLNGKEYKCKVSNKALPAPIEKTISKAKGQPREPQVYTLPPSREEMTKNQVNLTCLVKGFYPSDIAVEWESNGQPENNYKTTPPVLDSDGSFFLNSTLTVDKSRWQQGNVFSCSVMHEALHNHYTQKSLSLSPGKGGGGSGGGGSGGGGSQRPRLSHKGPMPF
Proteolysis During Production? [2]: Yes | Internalization Score [3]: 2 (100-1000)

B14: ELA-A (Fc fusion)
chain: DKTHTSPPSPAPEAAGGPSVFLFPPKPKDTLMISRTPEVTCVVVDVSHEDPEVKFNWYVDGVEVHNAKTKPREEQYNSTYRVVSVLTVLHQDWLNGKEYKCKVSNKALPAPIEKTISKAKGQPREPQVYTLPPSREEMTKNQVNLTCLVKGFYPSDIAVEWESNGQPENNYKTTPPVLDSDGSFFLNSTLTVDKSRWQQGNVFSCSVMHEALHNHYTQKSLSLSPGKGGGGSGGGGSGGGGSKLRKHNCLQRRCMPLHSRVPFP
Internalization Score [1]: 3 | ERK EC50 [4]: 0.19 nM | beta-Arrestin EC50 (nM) Exp. 1 [4]: 90.1 nM | beta-Arrestin EC50 (nM) Exp. 2 [4]: 42.6 nM | cAMP EC50 (nM) Exp. 1 [4]: 0.85 nM | cAMP EC50 (nM) Exp. 2 [4]: 1.4 nM

B15: ELA-B (Fc fusion)
chain: DKTHTSPPSPAPEAAGGPSVFLFPPKPKDTLMISRTPEVTCVVVDVSHEDPEVKFNWYVDGVEVHNAKTKPREEQYNSTYRVVSVLTVLHQDWLNGKEYKCKVSNKALPAPIEKTISKAKGQPREPQVYTLPPSREEMTKNQVNLTCLVKGFYPSDIAVEWESNGQPENNYKTTPPVLDSDGSFFLNSTLTVDKSRWQQGNVFSCSVMHEALHNHYTQKSLSLSPGKGGGGSGGGGSGGGGSKLNKHNCLQRRCMPLHSRVPFP
Internalization Score [1]: 3 | ERK EC50 [4]: 0.92 nM | beta-Arrestin EC50 (nM) Exp. 1 [4]: 1120 nM | beta-Arrestin EC50 (nM) Exp. 2 [4]: 59.9 nM | cAMP EC50 (nM) Exp. 1 [4]: 0.349 nM | cAMP EC50 (nM) Exp. 2 [4]: 1.5 nM
